Experimental data as given in article PMC3539437, “Solution Structures of PPARγ2/RXRα Complexes” (PPAR Research, 2012).

How the values were obtained:
[1] = biological target: T1, Full-length HsPPARγ2 (1–505) (human, UniProt P37231-1 1-505); assay: SAXS; complexes bound to Cyp4A1 PPRE DNA; Tris 20 mM pH 7.5, NaCl 75 mM, KCl 75 mM, MgSO4 4 mM, Glycerol 5%, Chaps 2 mM; ligands CD3254 and rosiglitazone; settings: both partners purified
T1 construct: PPARγ2, human, residues 1-505; Rosiglitazone was added in a 2-fold excess; also called PPARg2; full length PPARγ
T1 sequence (looked up): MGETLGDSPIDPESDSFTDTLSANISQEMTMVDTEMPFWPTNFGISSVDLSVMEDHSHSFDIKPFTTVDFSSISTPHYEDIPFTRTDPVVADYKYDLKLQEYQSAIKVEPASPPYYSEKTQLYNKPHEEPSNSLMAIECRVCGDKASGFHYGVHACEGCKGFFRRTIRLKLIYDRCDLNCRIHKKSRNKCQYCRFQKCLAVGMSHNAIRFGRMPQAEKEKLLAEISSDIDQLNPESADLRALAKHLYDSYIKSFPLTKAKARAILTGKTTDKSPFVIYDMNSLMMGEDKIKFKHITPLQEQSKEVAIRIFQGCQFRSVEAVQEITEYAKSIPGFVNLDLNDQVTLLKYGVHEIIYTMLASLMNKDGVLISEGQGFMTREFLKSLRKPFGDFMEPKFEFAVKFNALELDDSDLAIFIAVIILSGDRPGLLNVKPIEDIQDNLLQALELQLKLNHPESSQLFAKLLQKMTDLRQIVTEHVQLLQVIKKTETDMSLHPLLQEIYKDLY

[2] = biological target: T2, HsPPARγΔNTD (135–505) (human, UniProt P37231 135-505); assay: co-purification (affinity chromatography, gel filtration); heterodimer partners coexpressed (E. coli BL21 (DE3) or Sf9) and copurified in two steps; settings: partners not purified
T2 construct: PPARγ2 without its N-terminal domain, human, residues 135-505 (PPARγ2 has 505 residues); Rosiglitazone was added in a 2-fold excess; also called PPARγ2ΔNTD
T2 sequence (looked up): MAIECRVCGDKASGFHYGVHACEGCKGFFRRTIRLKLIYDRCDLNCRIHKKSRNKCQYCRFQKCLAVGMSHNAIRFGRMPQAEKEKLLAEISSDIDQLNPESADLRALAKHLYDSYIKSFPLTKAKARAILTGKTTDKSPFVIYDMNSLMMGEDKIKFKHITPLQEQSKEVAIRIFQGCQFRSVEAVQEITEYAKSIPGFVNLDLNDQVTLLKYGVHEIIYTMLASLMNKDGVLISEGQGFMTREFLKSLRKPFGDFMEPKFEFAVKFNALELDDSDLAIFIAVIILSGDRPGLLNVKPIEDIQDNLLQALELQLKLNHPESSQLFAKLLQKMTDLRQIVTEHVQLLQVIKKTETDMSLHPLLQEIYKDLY

[3] = biological target: T3, Full-length PPARγ2/RXRα heterodimer (human, UniProt P37231 1-505; P19793 1-462); assay: SAXS; complexes bound to Cyp4A1 PPRE DNA; Tris 20 mM pH 7.5, NaCl 75 mM, KCl 75 mM, MgSO4 4 mM, Glycerol 5%, Chaps 2 mM; ligands CD3254 and rosiglitazone; settings: both partners purified
T3 construct: PPARγ2, human, residues 1-505; Retinoid X receptor alpha, human, residues 1-462; also called integral PPARγ/RXRα; full-length heterodimer
T3 sequence (looked up) 1: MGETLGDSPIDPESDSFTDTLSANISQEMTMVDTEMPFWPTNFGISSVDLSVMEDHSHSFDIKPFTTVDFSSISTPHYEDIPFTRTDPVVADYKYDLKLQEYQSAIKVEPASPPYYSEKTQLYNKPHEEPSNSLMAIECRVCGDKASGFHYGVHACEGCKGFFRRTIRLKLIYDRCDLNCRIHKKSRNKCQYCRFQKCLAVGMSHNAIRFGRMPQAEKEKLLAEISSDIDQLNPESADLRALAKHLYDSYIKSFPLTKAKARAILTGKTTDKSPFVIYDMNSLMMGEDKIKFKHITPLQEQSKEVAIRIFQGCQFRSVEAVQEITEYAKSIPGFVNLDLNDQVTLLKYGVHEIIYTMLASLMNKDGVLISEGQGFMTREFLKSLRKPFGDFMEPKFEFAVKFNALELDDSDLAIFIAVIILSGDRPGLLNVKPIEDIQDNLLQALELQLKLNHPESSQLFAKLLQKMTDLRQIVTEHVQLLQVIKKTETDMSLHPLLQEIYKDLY
T3 sequence (looked up) 2: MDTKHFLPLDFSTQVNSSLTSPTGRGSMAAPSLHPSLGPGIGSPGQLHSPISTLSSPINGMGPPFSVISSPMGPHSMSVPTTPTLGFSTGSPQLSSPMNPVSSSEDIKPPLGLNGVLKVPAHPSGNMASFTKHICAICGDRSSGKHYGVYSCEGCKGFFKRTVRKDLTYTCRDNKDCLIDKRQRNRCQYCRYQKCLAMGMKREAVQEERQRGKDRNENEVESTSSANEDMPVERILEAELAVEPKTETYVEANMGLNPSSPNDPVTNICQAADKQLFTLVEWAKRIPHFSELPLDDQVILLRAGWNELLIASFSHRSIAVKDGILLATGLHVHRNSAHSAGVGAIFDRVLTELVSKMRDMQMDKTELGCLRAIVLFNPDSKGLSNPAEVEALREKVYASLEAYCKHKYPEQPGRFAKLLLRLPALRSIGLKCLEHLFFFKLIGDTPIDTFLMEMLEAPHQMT

[4] = biological target: T4, PPARγ/RXRα LBDs heterodimer (human, UniProt P37231-2 203-477; P19793 223-462); assay: native MS; ESI-MS under nondenaturing conditions, 200 mM ammonium acetate (pH 8.0 in the methods, pH 7.4 in the legend), capillary exit 80 V; settings: both partners purified
T4 construct: nontagged; Ligands (CD3254 for RXR and rosiglitazone for PPAR) were added in a 2-fold excess; also called PPAR/RXR LBDs; LBD dimer
T4 sequence (looked up) 1: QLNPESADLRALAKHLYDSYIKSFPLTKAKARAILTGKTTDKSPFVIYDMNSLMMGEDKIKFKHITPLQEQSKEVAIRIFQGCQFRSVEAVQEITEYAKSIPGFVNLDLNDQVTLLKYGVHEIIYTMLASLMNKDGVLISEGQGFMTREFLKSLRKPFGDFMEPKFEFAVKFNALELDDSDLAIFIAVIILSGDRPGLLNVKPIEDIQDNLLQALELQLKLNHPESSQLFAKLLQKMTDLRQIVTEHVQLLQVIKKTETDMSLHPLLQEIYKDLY
T4 sequence (looked up) 2: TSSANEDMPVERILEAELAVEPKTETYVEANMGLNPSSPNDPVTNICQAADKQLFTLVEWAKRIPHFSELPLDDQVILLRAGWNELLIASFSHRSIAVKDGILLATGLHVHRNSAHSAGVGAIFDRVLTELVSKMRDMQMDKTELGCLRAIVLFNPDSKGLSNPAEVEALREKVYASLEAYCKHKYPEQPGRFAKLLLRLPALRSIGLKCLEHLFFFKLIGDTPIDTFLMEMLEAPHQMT

[5] = biological target: T5, PPARγΔNTD/RXRαΔNTD heterodimer (human, UniProt P37231 135-505; P19793 130-462); assay: AUC; sedimentation equilibrium at 12,000 rpm, fitted with Sedphat; TIF2 RID with PPARγΔNTD/RXRαΔNTD/DNA; settings: both partners purified
T5 construct: PPARγ2 without its N-terminal domain, human, residues 135-505; Retinoid X receptor alpha without its N-terminal domain, human, residues 130-462; nontagged; also called PPARγ2ΔNTD/RXRαΔNTD; PPARγΔNTD/RXRΔNTD
T5 sequence (looked up) 1: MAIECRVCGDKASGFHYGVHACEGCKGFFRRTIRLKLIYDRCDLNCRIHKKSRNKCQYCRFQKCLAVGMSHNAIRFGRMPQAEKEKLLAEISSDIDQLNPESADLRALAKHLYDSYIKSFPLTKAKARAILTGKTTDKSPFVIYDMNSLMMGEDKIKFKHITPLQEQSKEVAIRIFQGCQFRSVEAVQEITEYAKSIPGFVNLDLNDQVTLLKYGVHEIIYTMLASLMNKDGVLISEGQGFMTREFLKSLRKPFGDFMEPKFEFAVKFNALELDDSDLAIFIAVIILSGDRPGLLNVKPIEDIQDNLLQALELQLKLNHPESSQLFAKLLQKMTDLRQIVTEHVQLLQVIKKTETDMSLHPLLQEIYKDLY
T5 sequence (looked up) 2: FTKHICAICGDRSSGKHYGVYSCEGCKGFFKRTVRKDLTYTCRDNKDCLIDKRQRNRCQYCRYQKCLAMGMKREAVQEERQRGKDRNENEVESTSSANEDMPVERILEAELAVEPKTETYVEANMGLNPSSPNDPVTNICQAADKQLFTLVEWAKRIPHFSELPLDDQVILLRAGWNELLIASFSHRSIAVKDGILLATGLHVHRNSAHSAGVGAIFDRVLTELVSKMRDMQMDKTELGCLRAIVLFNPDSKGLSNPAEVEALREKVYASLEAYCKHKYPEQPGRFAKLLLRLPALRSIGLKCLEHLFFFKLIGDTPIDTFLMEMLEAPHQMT

[6] = biological target: T6, HsPPARγ LBD (203–477) (human, UniProt P37231-2 203-477); assay: co-purification (affinity chromatography, gel filtration); heterodimer partners coexpressed (E. coli BL21 (DE3) or Sf9) and copurified in two steps; settings: partners not purified
T6 construct: Rosiglitazone was added in a 2-fold excess; also called PPAR LBD
T6 sequence (looked up): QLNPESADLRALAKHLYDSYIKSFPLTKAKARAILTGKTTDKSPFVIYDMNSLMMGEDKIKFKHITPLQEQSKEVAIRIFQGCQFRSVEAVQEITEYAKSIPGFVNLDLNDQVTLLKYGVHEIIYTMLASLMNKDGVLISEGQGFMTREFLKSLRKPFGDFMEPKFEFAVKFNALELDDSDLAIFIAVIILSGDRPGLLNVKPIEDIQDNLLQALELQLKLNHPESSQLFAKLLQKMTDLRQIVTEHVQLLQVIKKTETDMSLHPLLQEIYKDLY

B1: HsRXRαΔNTD (130–462) (domain or fragment, human, UniProt P19793 130-462, looked up)
chain: FTKHICAICGDRSSGKHYGVYSCEGCKGFFKRTVRKDLTYTCRDNKDCLIDKRQRNRCQYCRYQKCLAMGMKREAVQEERQRGKDRNENEVESTSSANEDMPVERILEAELAVEPKTETYVEANMGLNPSSPNDPVTNICQAADKQLFTLVEWAKRIPHFSELPLDDQVILLRAGWNELLIASFSHRSIAVKDGILLATGLHVHRNSAHSAGVGAIFDRVLTELVSKMRDMQMDKTELGCLRAIVLFNPDSKGLSNPAEVEALREKVYASLEAYCKHKYPEQPGRFAKLLLRLPALRSIGLKCLEHLFFFKLIGDTPIDTFLMEMLEAPHQMT
notes: Retinoid X receptor alpha without its N-terminal domain, human, residues 130-462; nontagged (pACYC plasmid); CD3254 was added in a 2-fold excess; also called RXRΔNTD
- binding result [1]: binds
- binding result [2]: binds

B2: HsTIF-2 (632–772), TIF2 receptor interacting domain (RID) (domain or fragment, human, UniProt Q15596 632-772, looked up)
chain: LHDSKGQTKLLQLLTTKSDQMEPSPLASSLSDTNKDSTGSLPGSGSTHGTSLKEKHKILHRLLQDSSSPVDLAKLTAEATGKDLSQESSSTAPGSEVTIKQEPVSPKKKENALLRYLLDKDDTKDIGLPEITPKLERLDSK
notes: TIF2 (NCoA2, p160 member), human, residues 632-772: 15 kDa fragment with the three LXXLL motifs; also called TIF2 RID; TIF-2 RID
- stoichiometry N [3]: 1 coactivator per receptor dimer
- stoichiometry N [4]: 1 TIF2 RID per heterodimer
- stoichiometry N [5]: 1 TIF2 RID per heterodimer

B3: HsRXRα LBD (223–462) (domain or fragment, human, UniProt P19793 223-462, looked up)
chain: TSSANEDMPVERILEAELAVEPKTETYVEANMGLNPSSPNDPVTNICQAADKQLFTLVEWAKRIPHFSELPLDDQVILLRAGWNELLIASFSHRSIAVKDGILLATGLHVHRNSAHSAGVGAIFDRVLTELVSKMRDMQMDKTELGCLRAIVLFNPDSKGLSNPAEVEALREKVYASLEAYCKHKYPEQPGRFAKLLLRLPALRSIGLKCLEHLFFFKLIGDTPIDTFLMEMLEAPHQMT
notes: nontagged (pACYC plasmid); CD3254 was added in a 2-fold excess; also called RXR LBD
- binding result [6]: binds
